Results taken from patent publication US20060154340A1.

Molecular target: trypsin
Experiment: cell-based or functional assay

## TrxA-PI2JO fusion protein (thioredoxin fused to potato proteinase inhibitor II isomer PI2JO, from plasmid pKBEPI-5 in E. coli BL21trxB(DE3)) (from UniProt P0AA25 1-109)
  Trypsin inhibition activity (hydrolysis of TAME by trypsin followed at 247 nm; one unit = amount causing 50% inhibition of trypsin) (Trypsin-Inhibition-Unit/mL): 1390
